A word on the Kd: it is the constant that tells how readily two partners part at equilibrium.

The source of these data is patent US20240317859A1 (FOUNDATION FOR BIOMEDICAL RESEARCH AND INNOVATION AT KOBE, published 2024).

Assay [1] concerns the target human PD-1 (wild-type), expressed on cells (human, UniProt Q15116 25-288). In words: cell-based or functional assay.
Assay [2] addresses Human PD-1/PDCD1 Protein (PD-1) (human, UniProt Q15116 25-167, limits assumed). In words: SPR, Biacore 8K; PD-1 captured by anti-His antibody, antibody in flow. As to the method:
The binding affinity of each antibody to human PD-1 was measured with Biacore 8K (Cytiva). Briefly, anti-His Tag antibody was immobilized by amine coupling using Amine Coupling Kit and His Capture Kit, onto 8 channels of a sensor chip (provided with 16 flow cells; one channel consisting of two flow cells) which had carboxymethyl dextran immobilized on a gold film. The immobilization was performed by feeding an activation solution (NHS and EDC mixed in equal amounts) at a flow rate of 10 μl/min for 7 minutes, an immobilization solution at a flow rate of 5 μl/min for 7 minutes, and 1 M ethanolamine hydrochloride-NaOH (pH 8.5) at a flow rate of 10 μl/min for 7 minutes. The buffer used at the time of immobilization was 1×HBS-EP+ Buffer. After the immobilization and before applying a sample, Human PD-1/PDCD1 Protein (PD-1) adjusted to 1 μg/ml with 1×HBS-EP+ Buffer was fed to one of the two flow cells of each channel in an amount of 20 μl at a flow rate of 10 μl/min to thereby capture PD-1 on the sensor chip. As regards the other flow cell, 1×HBS-EP+ Buffer was fed in the same manner to prepare a control flow cell. Each antibody was adjusted to 16 nM with 1×HBS-EP+ Buffer, and then subjected to 2-fold 7-step serial dilution using 1×HBS-EP+ Buffer. The resultant sample solution (30 μl) was fed to each flow cell at a flow rate of 10 μl/min and the response was measured. After subtracting the response of control flow cell from the response of the flow cell which was allowed to capture the ligand, KD value was calculated by curve fitting using Biacore 8K Evaluation Software.
For orientation: SPR reads the build-up and loss of mass on a sensor chip optically.

human PD-1 (wild-type), expressed on cells, sequence (Q15116 25-288 limits assumed): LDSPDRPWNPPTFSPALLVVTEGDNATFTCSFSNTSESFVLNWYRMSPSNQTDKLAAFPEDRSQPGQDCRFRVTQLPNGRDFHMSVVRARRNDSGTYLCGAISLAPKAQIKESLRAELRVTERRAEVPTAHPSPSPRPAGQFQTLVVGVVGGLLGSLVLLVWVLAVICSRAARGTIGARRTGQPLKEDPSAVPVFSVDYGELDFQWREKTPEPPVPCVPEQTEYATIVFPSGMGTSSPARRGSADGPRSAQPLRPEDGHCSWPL
Human PD-1/PDCD1 Protein (PD-1), sequence (Q15116 25-167 limits assumed): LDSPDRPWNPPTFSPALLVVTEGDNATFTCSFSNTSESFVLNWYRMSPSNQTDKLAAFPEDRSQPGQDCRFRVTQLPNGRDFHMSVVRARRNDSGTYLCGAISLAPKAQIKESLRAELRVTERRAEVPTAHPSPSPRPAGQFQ

B1: HM297-G5 (antibody, human IgG1, V domains shown)
VH: QVQLVQSGPEVKKPGASVKIPCKASGYTFTDYNVDWVRQVPGQGLEWIGDIDPNNGGTIYNQKFKDKATLTVDKSTRTAYMELRSLRSDDTAVYYCARWRGAMDYWGQGTLVTVSS
VL: DIQMTQSPSSLSASVGDRVTITCRASQDIDNYLKWYQQKPDGTVKLLIYDTSRLHSGVPSRFSGSGSGTDYTLTISSLKQEDFATYYCQQGYTLPWTFGQGTKLEIK
notes: also called humanized HM297, VH ver.G / VL ver.5
Take B1: the “Cell-cell contact assay” value in assay [1] is 102 ng/mL. In assay [2], this molecule came in with a Kd of 0.232 nM.

B2: HM297-F6 (antibody, human IgG1, V domains shown)
VH: QVQLVQSGPEVKKPGASVKIPCKASGYTFTDYNVDWVRQSHGKSLEWIGDIDPNNGGTIYNQKFKDRVTMTVDKSTRTAYMELRSLRSDDTAVYYCARWRGAMDYWGQGTLVTVSS
VL: DIQMTQSPSSLSASVGDRVTITCRASQDIDNYLKWYQQKPGKAPKLLIYDTSRLHSGVPSRFSGSGSGTDYTLTISSLQPEDFATYYCQQGYTLPWTFGQGTKLEIK
notes: also called humanized HM297, VH ver.F / VL ver.6
In the case of B2, the “Cell-cell contact assay” value in assay [1] was determined as 150 ng/mL. This molecule also yielded an equilibrium dissociation constant (Kd) in assay [2] of 4.83 nM.

B3: HM297-F5 (antibody, human IgG1, V domains shown)
VH: QVQLVQSGPEVKKPGASVKIPCKASGYTFTDYNVDWVRQSHGKSLEWIGDIDPNNGGTIYNQKFKDRVTMTVDKSTRTAYMELRSLRSDDTAVYYCARWRGAMDYWGQGTLVTVSS
VL: DIQMTQSPSSLSASVGDRVTITCRASQDIDNYLKWYQQKPDGTVKLLIYDTSRLHSGVPSRFSGSGSGTDYTLTISSLKQEDFATYYCQQGYTLPWTFGQGTKLEIK
notes: also called humanized HM297, VH ver.F / VL ver.5
For the molecule B3, the “Cell-cell contact assay” value in assay [1] came out at 98.9 ng/mL. The molecule also returned a dissociation constant (Kd) in assay [2] of 2.35 nM.

B4: HM297-I5 (antibody, human IgG1, V domains shown)
VH: QVQLVQSGPEVKKPGASVKVVCKASGYTFTDYNVDWVRQVPGQGLEWMGDIDPNNGGTIYNQKFKDRVTMTVDTSTRTAYMELRSLRSDDTAVYYCARWRGAMDYWGQGTLVTVSS
VL: DIQMTQSPSSLSASVGDRVTITCRASQDIDNYLKWYQQKPDGTVKLLIYDTSRLHSGVPSRFSGSGSGTDYTLTISSLKQEDFATYYCQQGYTLPWTFGQGTKLEIK
notes: also called humanized HM297, VH ver.I / VL ver.5
Take B4: in assay [1], the “Cell-cell contact assay” value came to 94.9 ng/mL. For the same molecule, in assay [2], the Kd stood at 2.2 nM.

B5: HM297-F4 (antibody, human IgG1, V domains shown)
VH: QVQLVQSGPEVKKPGASVKIPCKASGYTFTDYNVDWVRQSHGKSLEWIGDIDPNNGGTIYNQKFKDRVTMTVDKSTRTAYMELRSLRSDDTAVYYCARWRGAMDYWGQGTLVTVSS
VL: DIQMTQTTSSLSASVGDRVTITCRASQDIDNYLKWYQQKPDGTVKLLIYDTSRLHSGVPSRFSGSGSGTDYTLTISSLKQEDFATYYCQQGYTLPWTFGQGTKLEIK
notes: also called humanized HM297, VH ver.F / VL ver.4
Regarding B5, the “Cell-cell contact assay” value in assay [1] was determined as 92.3 ng/mL. The same molecule registered a Kd in assay [2] of 24.1 nM.

B6: HM297-G6 (antibody, human IgG1, V domains shown)
VH: QVQLVQSGPEVKKPGASVKIPCKASGYTFTDYNVDWVRQVPGQGLEWIGDIDPNNGGTIYNQKFKDKATLTVDKSTRTAYMELRSLRSDDTAVYYCARWRGAMDYWGQGTLVTVSS
VL: DIQMTQSPSSLSASVGDRVTITCRASQDIDNYLKWYQQKPGKAPKLLIYDTSRLHSGVPSRFSGSGSGTDYTLTISSLQPEDFATYYCQQGYTLPWTFGQGTKLEIK
notes: also called humanized HM297, VH ver.G / VL ver.6
In the case of B6, the “Cell-cell contact assay” value in assay [1] came to 59.7 ng/mL. Further, the Kd in assay [2] amounted to 1.89 nM.

B7: HM297-H6 (antibody, human IgG1, V domains shown)
VH: QVQLVQSGPEVKKPGASVKIPCKASGYTFTDYNVDWVRQVPGQGLEWMGDIDPNNGGTIYNQKFKDRVTMTVDKSTRTAYMELRSLRSDDTAVYYCARWRGAMDYWGQGTLVTVSS
VL: DIQMTQSPSSLSASVGDRVTITCRASQDIDNYLKWYQQKPGKAPKLLIYDTSRLHSGVPSRFSGSGSGTDYTLTISSLQPEDFATYYCQQGYTLPWTFGQGTKLEIK
notes: also called humanized HM297, VH ver.H / VL ver.6
As for B7, the “Cell-cell contact assay” value in assay [1] was found to be 141 ng/mL. The molecule also registered a Kd in assay [2] of 1.86 nM.

B8: HM297-E6 (antibody, human IgG1, V domains shown)
VH: QVQLVQSGPELVKPGASVKIPCKASGYTFTDYNVDWVRQSHGKSLEWIGDIDPNNGGTIYNQKFKDKATLTVDKSTRTAYMELRSLRSDDTAVYYCARWRGAMDYWGQGTLVTVSS
VL: DIQMTQSPSSLSASVGDRVTITCRASQDIDNYLKWYQQKPGKAPKLLIYDTSRLHSGVPSRFSGSGSGTDYTLTISSLQPEDFATYYCQQGYTLPWTFGQGTKLEIK
notes: also called humanized HM297, VH ver.E / VL ver.6
For B8, the “Cell-cell contact assay” value in assay [1] turned out to be 65.4 ng/mL. The molecule also showed a Kd in assay [2] of 12.6 nM.

B9: HM297-E5 (antibody, human IgG1, V domains shown)
VH: QVQLVQSGPELVKPGASVKIPCKASGYTFTDYNVDWVRQSHGKSLEWIGDIDPNNGGTIYNQKFKDKATLTVDKSTRTAYMELRSLRSDDTAVYYCARWRGAMDYWGQGTLVTVSS
VL: DIQMTQSPSSLSASVGDRVTITCRASQDIDNYLKWYQQKPDGTVKLLIYDTSRLHSGVPSRFSGSGSGTDYTLTISSLKQEDFATYYCQQGYTLPWTFGQGTKLEIK
notes: also called humanized HM297, VH ver.E / VL ver.5
Consider B9, for which the “Cell-cell contact assay” value in assay [1] came to 78.6 ng/mL. The affinity in assay [2], expressed as Kd, was 50.2 nM.

B10: HM297-I4 (antibody, human IgG1, V domains shown)
VH: QVQLVQSGPEVKKPGASVKVVCKASGYTFTDYNVDWVRQVPGQGLEWMGDIDPNNGGTIYNQKFKDRVTMTVDTSTRTAYMELRSLRSDDTAVYYCARWRGAMDYWGQGTLVTVSS
VL: DIQMTQTTSSLSASVGDRVTITCRASQDIDNYLKWYQQKPDGTVKLLIYDTSRLHSGVPSRFSGSGSGTDYTLTISSLKQEDFATYYCQQGYTLPWTFGQGTKLEIK
notes: also called humanized HM297, VH ver.I / VL ver.4
For the molecule B10, the “Cell-cell contact assay” value in assay [1] was found to be 65.6 ng/mL. In addition, in assay [2], the Kd turned out to be 4.84 nM.

B11: HM297-E4 (antibody, human IgG1, V domains shown)
VH: QVQLVQSGPELVKPGASVKIPCKASGYTFTDYNVDWVRQSHGKSLEWIGDIDPNNGGTIYNQKFKDKATLTVDKSTRTAYMELRSLRSDDTAVYYCARWRGAMDYWGQGTLVTVSS
VL: DIQMTQTTSSLSASVGDRVTITCRASQDIDNYLKWYQQKPDGTVKLLIYDTSRLHSGVPSRFSGSGSGTDYTLTISSLKQEDFATYYCQQGYTLPWTFGQGTKLEIK
notes: also called humanized HM297, VH ver.E / VL ver.4
For the molecule B11, the “Cell-cell contact assay” value in assay [1] was 100 ng/mL. Further, in assay [2], the equilibrium dissociation constant (Kd) is 0.129 nM.

B12: HM297-H4 (antibody, human IgG1, V domains shown)
VH: QVQLVQSGPEVKKPGASVKIPCKASGYTFTDYNVDWVRQVPGQGLEWMGDIDPNNGGTIYNQKFKDRVTMTVDKSTRTAYMELRSLRSDDTAVYYCARWRGAMDYWGQGTLVTVSS
VL: DIQMTQTTSSLSASVGDRVTITCRASQDIDNYLKWYQQKPDGTVKLLIYDTSRLHSGVPSRFSGSGSGTDYTLTISSLKQEDFATYYCQQGYTLPWTFGQGTKLEIK
notes: also called humanized HM297, VH ver.H / VL ver.4
As for B12, in assay [1], the “Cell-cell contact assay” value was found to be 185 ng/mL. For the same molecule, binding in assay [2] was characterised by a dissociation constant (Kd) of 0.221 nM.

B13: HM297-G4 (antibody, human IgG1, V domains shown)
VH: QVQLVQSGPEVKKPGASVKIPCKASGYTFTDYNVDWVRQVPGQGLEWIGDIDPNNGGTIYNQKFKDKATLTVDKSTRTAYMELRSLRSDDTAVYYCARWRGAMDYWGQGTLVTVSS
VL: DIQMTQTTSSLSASVGDRVTITCRASQDIDNYLKWYQQKPDGTVKLLIYDTSRLHSGVPSRFSGSGSGTDYTLTISSLKQEDFATYYCQQGYTLPWTFGQGTKLEIK
notes: also called humanized HM297, VH ver.G / VL ver.4
Turning to B13, in assay [1], the “Cell-cell contact assay” value worked out at 55.4 ng/mL. Besides, the equilibrium dissociation constant (Kd) in assay [2] was 0.451 nM.

B14: chimeric HM297-IgG1-K322A (antibody)
heavy: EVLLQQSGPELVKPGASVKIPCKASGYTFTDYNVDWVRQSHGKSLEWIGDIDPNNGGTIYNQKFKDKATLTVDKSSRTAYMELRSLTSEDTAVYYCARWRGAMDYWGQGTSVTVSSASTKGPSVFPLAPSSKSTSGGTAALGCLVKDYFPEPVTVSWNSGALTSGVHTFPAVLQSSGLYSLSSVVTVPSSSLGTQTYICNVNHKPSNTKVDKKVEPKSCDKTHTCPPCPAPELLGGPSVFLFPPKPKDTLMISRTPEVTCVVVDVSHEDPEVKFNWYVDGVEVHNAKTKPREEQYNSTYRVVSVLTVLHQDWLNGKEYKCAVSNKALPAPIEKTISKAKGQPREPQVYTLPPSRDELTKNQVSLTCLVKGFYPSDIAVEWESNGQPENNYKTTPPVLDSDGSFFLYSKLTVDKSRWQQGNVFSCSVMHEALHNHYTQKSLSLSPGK
light: DVQMTQTTSSLSASLGDRVTISCRASQDIDNYLKWYQQKPDGTVKLLIYDTSRLHSGVPSRFSGSGSGTDYSLTISNLKQEDIATYFCQQGYTLPWTFGGGTRLEIKRTVAAPSVFIFPPSDEQLKSGTASVVCLLNNFYPREAKVQWKVDNALQSGNSQESVTEQDSKDSTYSLSSTLTLSKADYEKHKVYACEVTHQGLSSPVTKSFNRGEC
notes: Mouse Fab region with the Fc region of human IgG1-K322A
Turning to B14, the “Cell-cell contact assay” value in assay [1] amounted to 78.3 ng/mL. The molecule further yielded a Kd in assay [2] of 0.0493 nM.
